Experimental data taken from PMC5715344, “Structural enzymology comparisons of multifunctional enzyme, type‐1 (MFE1): the flexibility of its dehydrogenase part” (FEBS Open Bio, 2017).

What was measured:
Test in all cases: purified protein
Type in all cases: biochemical, Rattus norvegicus
purified protein [1] = substrate: CC(=O)CC(=O)SCCNC(=O)CCNC(=O)[C@H](O)C(C)(C)COP(=O)(O)OP(=O)(O)OC[C@H]1O[C@@H](n2cnc3c(N)ncnc32)[C@H](O)[C@@H]1OP(=O)(O)O; conditions: 0.1 mM NADH, 50 mM Tris/HCl pH 7.0, 50 mM KCl, BSA, 25 °C, dehydrogenase site
purified protein [2] = substrate: C/C=C/C(=O)SCCNC(=O)CCNC(=O)[C@H](O)C(C)(C)COP(=O)(O)OP(=O)(O)OC[C@H]1O[C@@H](n2cnc3c(N)ncnc32)[C@H](O)[C@@H]1OP(=O)(O)O; conditions: 50 mM Tris pH 9.0, 50 mM KCl, BSA, 25 °C, hydratase site
purified protein [3] = substrate: C[C@H](O)CC(=O)SCCNC(=O)CCNC(=O)[C@H](O)C(C)(C)COP(=O)(O)OP(=O)(O)OC[C@H]1O[C@@H](n2cnc3c(N)ncnc32)[C@H](O)[C@@H]1OP(=O)(O)O; conditions: 1 mM NAD+, 50 mM Tris pH 9.0, 50 mM KCl, BSA, 25 °C, dehydrogenase site, substrate generated in situ from 2E-butenoyl-CoA by the enzyme's own hydratase site

B1: rat peroxisomal multifunctional enzyme, type-1 (rpMFE1) (Rattus norvegicus) (protein)
chain: MAEYLRLPHSLAMIRLCNPPVNAVSPTVIREVRNGLQKAGSDHTVKAIVICGANGNFCAGADIHGFSAFTPGLALGSLVDEIQRYQKPVLAAIQGVALGGGLELALGCHYRIANAKARVGLPEVTLGILPGARGTQLLPRVVGVPVALDLITSGKYLSADEALRLGILDAVVKSDPVEEAIKFAQKIIDKPIEPRRIFNKPVPSLPNMDSVFAEAIAKVRKQYPGVLAPETCVRSIQASVKHPYEVGIKEEEKLFMYLRASGQAKALQYAFFAEKSANKWSTPSGASWKTASAQPVSSVGVLGLGTMGRGIAISFARVGISVVAVESDPKQLDAAKKIITFTLEKEASRAHQNGQASAKPKLRFSSSTKELSTVDLVVEAVFEDMNLKKKVFAELSALCKPGAFLCTNTSALNVDDIASSTDRPQLVIGTHFFSPAHVMRLLEVIPSRYSSPTTIATVMSLSKKIGKIGVVVGNCYGFVGNRMLAPYYNQGFFLLEEGSKPEDVDGVLEEFGFKMGPFRVSDLAGLDVGWKIRKGQGLTGPSLPPGTPVRKRGNSRYSPLGDMLCEAGRFGQKTGKGWYQYDKPLGRIHKPDPWLSTFLSQYREVHHIEQRTISKEEILERCLYSLINEAFRILEEGMAARPEHIDVIYLHGYGWPRHKGGPMFYAASVGLPTVLEKLQKYYRQNPDIPQLEPSDYLRRLVAQGSPPLKEWQSLAGPHGSKL
notes: full length, 722 residues, pET15b recombinant; crystal model of molecule A starts at residue -4 (N-terminal vector/tag residues present); monomer
Km (purified protein [1]): 44.0 ± 15.0 µM | kcat (purified protein [1]): 23 ± 2.3 s⁻¹ | kcat/Km (purified protein [1]): 500000 M⁻¹ s⁻¹ | Km (purified protein [2]): 82.0 ± 18.0 µM | kcat (purified protein [2]): 113 ± 33 s⁻¹ | kcat/Km (purified protein [2]): 1.4e+06 M⁻¹ s⁻¹ | Km (purified protein [3]): 3.6 ± 1.0 µM | kcat (purified protein [3]): 1.7 ± 0.1 s⁻¹ | kcat/Km (purified protein [3]): 500000 M⁻¹ s⁻¹
